From patent US20100184658A1 (published 2010)

What was measured:
Test in all cases: cell-based or functional assay
PRKCN (PKD3) = molecular target: T1, PRKCN (PKD3) (UniProt O94806 1-890, limits assumed)
T1 sequence (looked up): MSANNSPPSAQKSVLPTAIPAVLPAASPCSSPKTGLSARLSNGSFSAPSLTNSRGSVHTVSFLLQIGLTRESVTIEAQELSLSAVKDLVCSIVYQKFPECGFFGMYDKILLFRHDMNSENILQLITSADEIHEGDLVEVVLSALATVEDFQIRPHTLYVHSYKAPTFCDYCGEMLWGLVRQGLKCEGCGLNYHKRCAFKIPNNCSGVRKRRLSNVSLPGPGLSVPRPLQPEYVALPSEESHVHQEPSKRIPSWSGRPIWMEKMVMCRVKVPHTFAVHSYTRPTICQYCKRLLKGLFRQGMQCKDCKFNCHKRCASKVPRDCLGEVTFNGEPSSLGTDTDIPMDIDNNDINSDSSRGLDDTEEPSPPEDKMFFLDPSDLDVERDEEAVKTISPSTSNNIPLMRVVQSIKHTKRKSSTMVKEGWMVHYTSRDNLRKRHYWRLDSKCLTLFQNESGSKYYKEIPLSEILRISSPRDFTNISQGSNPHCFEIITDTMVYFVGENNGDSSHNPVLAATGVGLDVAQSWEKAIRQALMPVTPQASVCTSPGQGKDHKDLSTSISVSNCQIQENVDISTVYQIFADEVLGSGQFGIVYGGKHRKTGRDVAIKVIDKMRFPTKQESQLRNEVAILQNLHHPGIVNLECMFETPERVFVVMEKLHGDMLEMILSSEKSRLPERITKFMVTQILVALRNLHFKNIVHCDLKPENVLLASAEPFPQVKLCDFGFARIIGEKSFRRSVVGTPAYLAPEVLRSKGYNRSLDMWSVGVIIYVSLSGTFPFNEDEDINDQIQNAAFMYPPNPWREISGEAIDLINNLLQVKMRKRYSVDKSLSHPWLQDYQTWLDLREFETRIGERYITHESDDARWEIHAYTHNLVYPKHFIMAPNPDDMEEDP

[1] = molecular target: T2, MAP4K2 (GCK) Mitogen-activated protein kinase kinase kinase kinase 2 (UniProt Q12851 1-820, limits assumed)
T2 sequence (looked up): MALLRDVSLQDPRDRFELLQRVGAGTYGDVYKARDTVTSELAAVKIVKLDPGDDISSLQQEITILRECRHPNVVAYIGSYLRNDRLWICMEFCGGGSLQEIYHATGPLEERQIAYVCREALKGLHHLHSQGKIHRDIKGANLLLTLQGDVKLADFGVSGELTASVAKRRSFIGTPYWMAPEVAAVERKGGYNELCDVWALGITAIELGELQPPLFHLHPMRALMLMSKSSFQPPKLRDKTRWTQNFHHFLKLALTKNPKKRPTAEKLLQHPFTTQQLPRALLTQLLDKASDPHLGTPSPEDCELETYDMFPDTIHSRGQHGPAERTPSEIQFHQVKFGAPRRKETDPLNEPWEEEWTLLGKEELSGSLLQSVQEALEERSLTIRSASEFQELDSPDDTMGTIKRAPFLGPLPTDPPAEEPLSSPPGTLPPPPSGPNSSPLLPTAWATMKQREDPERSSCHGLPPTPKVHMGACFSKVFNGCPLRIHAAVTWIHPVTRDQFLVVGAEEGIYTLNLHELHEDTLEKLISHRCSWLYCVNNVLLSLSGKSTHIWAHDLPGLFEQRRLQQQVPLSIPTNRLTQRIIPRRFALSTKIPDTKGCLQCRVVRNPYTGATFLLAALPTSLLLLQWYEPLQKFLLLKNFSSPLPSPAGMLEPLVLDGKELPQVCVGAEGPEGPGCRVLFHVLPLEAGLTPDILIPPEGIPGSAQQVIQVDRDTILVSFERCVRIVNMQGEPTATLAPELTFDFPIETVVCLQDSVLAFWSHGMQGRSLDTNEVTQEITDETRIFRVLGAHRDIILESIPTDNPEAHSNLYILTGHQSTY

PRKD1 (PKC mu) = molecular target: T3, PRKD1 (PKC mu) (UniProt Q15139 1-912, limits assumed)
T3 sequence (looked up): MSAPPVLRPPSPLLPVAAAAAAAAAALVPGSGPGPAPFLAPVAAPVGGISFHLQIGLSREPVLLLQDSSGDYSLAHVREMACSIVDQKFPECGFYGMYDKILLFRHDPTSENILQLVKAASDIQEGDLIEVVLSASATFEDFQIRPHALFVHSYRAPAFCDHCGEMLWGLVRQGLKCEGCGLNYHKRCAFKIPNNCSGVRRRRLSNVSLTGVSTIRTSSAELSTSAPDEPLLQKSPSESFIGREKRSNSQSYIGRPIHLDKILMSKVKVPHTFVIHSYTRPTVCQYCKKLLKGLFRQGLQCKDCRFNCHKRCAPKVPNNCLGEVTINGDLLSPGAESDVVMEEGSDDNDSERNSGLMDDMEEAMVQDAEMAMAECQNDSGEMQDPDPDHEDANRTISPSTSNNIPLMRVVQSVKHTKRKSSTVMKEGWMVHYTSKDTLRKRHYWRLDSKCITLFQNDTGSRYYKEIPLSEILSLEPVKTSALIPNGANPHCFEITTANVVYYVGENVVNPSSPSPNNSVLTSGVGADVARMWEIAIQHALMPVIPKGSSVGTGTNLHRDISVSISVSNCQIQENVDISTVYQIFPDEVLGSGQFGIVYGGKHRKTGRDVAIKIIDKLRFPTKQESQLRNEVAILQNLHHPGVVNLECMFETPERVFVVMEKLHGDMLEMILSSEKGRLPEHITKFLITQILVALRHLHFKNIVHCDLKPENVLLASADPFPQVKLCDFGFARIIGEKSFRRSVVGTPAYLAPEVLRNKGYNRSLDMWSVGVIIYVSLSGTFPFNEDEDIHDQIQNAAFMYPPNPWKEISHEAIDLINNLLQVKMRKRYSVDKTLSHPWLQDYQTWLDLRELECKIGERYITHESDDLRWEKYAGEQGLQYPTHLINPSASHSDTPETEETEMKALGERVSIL

[2] = molecular target: SYK Spleen tyrosine kinase (UniProt P43405 1-635, limits assumed)
Note: test concentration or dose not given here.

Binder: SGRPPMIVWFNRPFLIAVSHTHGQTILFMAKVINPVGA [D3 peptide]
- % Inhibition mean (PRKCN (PKD3)): 69.6%
- % Inhibition mean [1]: 98.4%
- % Inhibition mean (PRKD1 (PKC mu)): 80.6%
- % Inhibition mean [2]: 54%
